Laboratory results reported in patent US20240239881A1.

Molecular target: Cynomolgus monkey Ang2 C-terminal domain (Lys274-Phe495) (cynomolgus monkey)
Assay: ForteBio BLI, antibody on AHQ sensor, 100 nM antigen, 1:1 model

Cynomolgus monkey Ang2 C-terminal domain (Lys274-Phe495) (cynomolgus monkey), sequence (chain, as listed by the source, form in doubt): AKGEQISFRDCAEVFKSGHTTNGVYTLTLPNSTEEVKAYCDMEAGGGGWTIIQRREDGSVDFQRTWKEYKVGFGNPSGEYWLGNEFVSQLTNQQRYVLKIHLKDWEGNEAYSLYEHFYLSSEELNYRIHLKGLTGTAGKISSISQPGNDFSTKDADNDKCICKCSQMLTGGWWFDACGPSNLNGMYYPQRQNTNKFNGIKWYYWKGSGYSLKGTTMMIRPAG

| Kd [nM] | Binder |
| --- | --- |
| 44.3 | chimeric antibody 81H10 (antibody, human IgG1, kappa, V domains shown) VH: EVKLEESGGGLVQPGGSMKLSCVASGFTFSNYWMNWVRQSPEKGLEWVAEIRLKSNNYATHYAESVKGRFTISRDVSKSSVYLQMNNLRTEDTGIYYCTDTAPFAYWGQGTLVTVSA VL: DIVMTQSHKFMSTSVGDRVSITCKASQDVGTDVAWYQQKPGQSPKLLIYWASTRHTGVPDRFTGSGSGTDFTLTISNVQSEDLSDYFCQQYSSYPLTFGGGTKLEIKR |
| 88.3 | humanized antibody hz81H10.4 (antibody, human IgG1, kappa, V domains shown) VH: EVQLVESGGGLVKPGGSLRLSCAASGFTFSNYWMNWVRQAPGKGLEWVAEIRLKSNNYATHYAESVKGRFTISRDVSKNTVYLQMNSLKTEDTAVYYCTDTAPFAYWGQGTLVTVSS VL: DIQMTQSPSSLSASVGDRVTITCKASQDVGTDVAWYQQKPGKAPKLLIYWASTRHTGVPSRFSGSGSGTDFTLTISSLQPEDFATYYCQQYSSYPLTFGGGTKVEIKR |
